From patent US20240116985A1 (published 2024)
Starred links: 1 amine or outer side, 2 acyl side, 3 side chain; linkers in the order of their positions; H or OH if unused. Positions of bridges follow the written chain, without caps; N, C: chain ends. Non-standard residues stand in square brackets, D forms with d. Primed or numbered codes have the meaning given here. PyrS2″ = (S)-3-amino-1-((pent-4-en-1-yloxy)carbonyl)pyrrolidine-3-carboxylic acid (stapling residue), C=CCCCOC(=O)N1CC[C@@](N[*:1])(C(=O)[*:2])C1; B5(23) = 2-amino-2-(pent-4-en-1-yl)hept-6-enoic acid (2,2-bis(4-pentenyl)glycine), stitching residue, C=CCCCC(CCCC=C)(N[*:1])C(=O)[*:2]; B5(24) = 2-amino-2-(pent-4-en-1-yl)hept-6-enoic acid, 2,2-bis(4-pentenyl)glycine (stitching residue), C=CCCCC(CCCC=C)(N[*:1])C(=O)[*:2]; TfeGA = (S)-2-amino-3-((carboxymethyl)(2,2,2-trifluoroethyl)amino)propanoic acid, O=C([C@H](CN(CC(=O)[*:3])CC(F)(F)F)N[*:1])[*:2]; B5(3) = 2,2-bis(4-pentenyl)glycine (stitching residue), C=CCCCC(CCCC=C)(N[*:1])C(=O)[*:2]; Asp(OEt)″ = aspartic acid side-chain ethyl ester, CCOC(=O)C[C@H](N[*:1])C(=O)[*:2]; Asp(OMe) = [Me]AspE, Asp side-chain methyl ester, COC(=O)C[C@H](N[*:1])C(=O)[*:2]; Phe(3-CF3) = N[C@@H](Cc1cccc(C(F)(F)F)c1)C(=O)O; Phe(3-COOH) = N[C@@H](Cc1cccc(C(=O)O)c1)C(=O)O; Phe(3-OMe) = COc1cccc(C[C@H](N)C(=O)O)c1; Phe(2-Cl) = N[C@@H](Cc1ccccc1Cl)C(=O)O; Phe(3-F) = N[C@@H](Cc1cccc(F)c1)C(=O)O; His(τ-Me) = Cn1cnc(C[C@H](N)C(=O)O)c1; Bta = N[C@@H](Cc1csc2ccccc12)C(=O)O; Lys(iPr) = CC(C)NCCCC[C@H](N)C(=O)O; αAllylPro = C=CC[C@@]1(C(=O)O)CCCN1; tBuAla = CC(C)(C)C[C@H](N)C(=O)O; 3Thi = N[C@@H](Cc1ccsc1)C(=O)O; Cha = N[C@@H](CC1CCCCC1)C(=O)O; S8 = C=CCCCCCC[C@](C)(N)C(=O)O; hSer = N[C@@H](CCO)C(=O)O; Aib = CC(C)(N)C(=O)O

T1: B-cat-Halo (beta-catenin HaloTag fusion expressed in HEK293 cells) (UniProt P35222 1-781, HaloTag NanoBRET 618 Ligand bound to the HaloTag)
T1 sequence (looked up): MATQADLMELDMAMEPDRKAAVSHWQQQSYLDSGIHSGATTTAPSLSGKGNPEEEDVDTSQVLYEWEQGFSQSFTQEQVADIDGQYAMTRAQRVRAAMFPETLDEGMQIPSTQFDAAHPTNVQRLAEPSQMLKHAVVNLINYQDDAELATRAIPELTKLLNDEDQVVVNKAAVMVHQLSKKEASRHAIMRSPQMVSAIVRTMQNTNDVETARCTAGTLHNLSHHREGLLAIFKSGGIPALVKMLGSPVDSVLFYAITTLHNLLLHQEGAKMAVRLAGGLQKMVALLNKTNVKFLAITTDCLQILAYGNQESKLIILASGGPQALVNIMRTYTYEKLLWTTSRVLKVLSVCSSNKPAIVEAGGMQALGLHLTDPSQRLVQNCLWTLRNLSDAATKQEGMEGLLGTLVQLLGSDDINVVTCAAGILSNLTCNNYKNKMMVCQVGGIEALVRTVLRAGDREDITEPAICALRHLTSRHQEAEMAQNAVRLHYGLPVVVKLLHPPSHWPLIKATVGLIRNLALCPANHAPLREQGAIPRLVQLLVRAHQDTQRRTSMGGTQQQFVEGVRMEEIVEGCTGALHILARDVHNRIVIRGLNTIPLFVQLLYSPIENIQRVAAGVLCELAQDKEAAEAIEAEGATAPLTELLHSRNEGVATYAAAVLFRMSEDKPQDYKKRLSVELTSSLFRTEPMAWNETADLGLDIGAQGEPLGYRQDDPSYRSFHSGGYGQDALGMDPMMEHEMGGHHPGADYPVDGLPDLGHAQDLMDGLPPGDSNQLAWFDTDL

T2: full-length beta-Catenin (Uniprot ID P35222) (Homo sapiens (Human), UniProt P35222 2-781)
T2 construct: also called bCat; B-Catenin
T2 sequence: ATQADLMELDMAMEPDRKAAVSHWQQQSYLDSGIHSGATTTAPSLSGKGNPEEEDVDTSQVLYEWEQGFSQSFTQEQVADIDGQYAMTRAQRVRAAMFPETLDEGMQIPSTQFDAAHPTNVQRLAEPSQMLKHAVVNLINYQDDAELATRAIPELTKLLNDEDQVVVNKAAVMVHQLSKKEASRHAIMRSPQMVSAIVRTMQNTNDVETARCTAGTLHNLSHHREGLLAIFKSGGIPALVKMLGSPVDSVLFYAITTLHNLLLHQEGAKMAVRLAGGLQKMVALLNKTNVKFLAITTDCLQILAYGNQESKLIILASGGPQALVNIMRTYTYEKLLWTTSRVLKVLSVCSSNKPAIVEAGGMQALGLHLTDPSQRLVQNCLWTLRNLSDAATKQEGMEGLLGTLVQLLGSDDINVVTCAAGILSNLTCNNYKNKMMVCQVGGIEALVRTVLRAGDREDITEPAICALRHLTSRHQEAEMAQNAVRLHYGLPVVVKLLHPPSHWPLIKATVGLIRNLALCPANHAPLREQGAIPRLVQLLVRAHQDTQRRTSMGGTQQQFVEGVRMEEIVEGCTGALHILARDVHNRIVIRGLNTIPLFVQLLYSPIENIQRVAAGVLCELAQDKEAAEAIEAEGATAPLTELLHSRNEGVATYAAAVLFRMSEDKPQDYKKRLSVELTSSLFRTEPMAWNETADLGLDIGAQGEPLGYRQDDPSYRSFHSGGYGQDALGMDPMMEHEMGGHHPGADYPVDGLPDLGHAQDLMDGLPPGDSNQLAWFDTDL

T3: B-cat-Halo (UniProt P35222 1-781)
T3 sequence (looked up): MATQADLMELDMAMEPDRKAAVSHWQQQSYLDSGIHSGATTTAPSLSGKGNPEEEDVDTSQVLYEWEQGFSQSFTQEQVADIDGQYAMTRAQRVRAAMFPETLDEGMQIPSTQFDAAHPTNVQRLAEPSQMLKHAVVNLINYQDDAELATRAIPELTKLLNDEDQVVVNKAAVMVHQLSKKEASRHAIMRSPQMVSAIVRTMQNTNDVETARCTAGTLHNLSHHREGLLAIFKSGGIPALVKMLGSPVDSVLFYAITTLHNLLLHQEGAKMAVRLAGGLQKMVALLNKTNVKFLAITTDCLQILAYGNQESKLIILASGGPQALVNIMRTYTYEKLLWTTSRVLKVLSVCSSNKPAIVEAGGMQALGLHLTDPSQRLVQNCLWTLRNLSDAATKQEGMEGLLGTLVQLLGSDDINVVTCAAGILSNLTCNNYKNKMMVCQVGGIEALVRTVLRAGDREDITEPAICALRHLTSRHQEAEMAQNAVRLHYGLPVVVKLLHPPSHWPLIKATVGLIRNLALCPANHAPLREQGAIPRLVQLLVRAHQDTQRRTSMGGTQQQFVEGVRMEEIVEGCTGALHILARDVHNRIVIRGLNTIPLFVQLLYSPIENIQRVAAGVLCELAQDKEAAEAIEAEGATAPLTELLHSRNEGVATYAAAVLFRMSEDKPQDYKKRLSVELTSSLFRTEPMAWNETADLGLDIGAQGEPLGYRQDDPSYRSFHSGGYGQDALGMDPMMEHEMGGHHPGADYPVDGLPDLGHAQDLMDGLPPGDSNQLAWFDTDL


What was measured:
[1] = molecular target: T1, B-cat-Halo (beta-catenin HaloTag fusion …); experiment: cell-based or functional assay
[2] = molecular target: T2, full-length beta-Catenin (Uniprot ID …); experiment: fluorescence polarization competition; 10 nM full-length beta-catenin + 10 nM 5FAM-TCF4(10-53) probe, peptide titrated
Method: The plate was incubated protected from light for 60 minutes at 20° C. prior to read. Reads were performed on a CLARIOstar plate reader (BMG Labtech) in duplicate, and data were fitted to a 1:1 binding model with hill slope using an in-house script. All provided concentrations are final concentrations.

[3] = molecular target: T3, B-cat-Halo; experiment: cell-based or functional assay

Binder | NanoBRET Abs IC50 [1] | also measured
Ac-[αAllylPro]D[tBuAla][B5(3)]N[Phe(3-COOH)]AAFT[PyrS2″][3Thi][Bta]Q-NH2 (staple 1-4, 4-11) [I-2336] | 14.4 µM | 
Ac-[αAllylPro]DA[B5(23)]D[His(τ-Me)]AAFV[S8][Phe(3-F)][Bta]Q-NH2 (staple 1-4, 4-11, Stapled (stitched) peptide) [I-403] |  | EC50 [2]: 2.13 µM
Ac-[αAllylPro]DA[B5(23)]DEAAFT[S8]F[Bta]Q-NH2 (staple 1-4, 4-11, Stapled (stitched) peptide) [I-423] |  | EC50 [2]: 0.105 µM
Ac-[αAllylPro]DA[B5(23)]DEAAFT[S8]F[Bta]H-NH2 (staple 1-4, 4-11, Stapled (stitched) peptide) [I-420] |  | EC50 [2]: 0.128 µM
Ac-[αAllylPro]DV[B5(23)]DEAAFQ[S8]F[Bta]Q-NH2 (staple 1-4, 4-11, Stapled (stitched) peptide) [I-410] |  | EC50 [2]: 0.05 µM
Ac-[αAllylPro]N[Cha][B5(3)]DQ[Lys(iPr)]AFL[PyrS2″]F[Bta]K-NH2 (staple 1-4, 4-11) [I-2350] | > 20 µM | 
Ac-[αAllylPro]N[Cha][B5(3)]D[Phe(3-COOH)][Lys(iPr)]AFL[PyrS2″]F[Bta]Q-NH2 (staple 1-4, 4-11) [I-2340] | > 20 µM | 
Ac-[αAllylPro]D[tBuAla][B5(3)]D[Asp(OEt)″]AAFL[PyrS2″][3Thi][Bta]Q-NH2 (staple 1-4, 4-11) [I-2358] | 52.2 µM | 
Ac-[αAllylPro]N[Cha][B5(3)]DQ[hSer]AFL[PyrS2″]F[Bta]Q-NH2 (staple 1-4, 4-11; also: earlier eluting isomer, configuration not given here) [I-2354] | > 20 µM | 
Ac-[αAllylPro]D[Cha][B5(3)]DDAA[Phe(3-OMe)]S[PyrS2″]F[Bta]Q-NH2 (staple 1-4, 4-11) [I-1124] |  | NanoBRET Abs IC50 [3]: > 20 µM
Ac-[αAllylPro]D[tBuAla][B5(24)]DDAAFN[PyrS2″][Phe(2-Cl)][Bta][Lys(iPr)]-NH2 (staple 1-4, 4-11) [I-1130] |  | NanoBRET Abs IC50 [3]: 7.6 µM
Ac-[αAllylPro]D[tBuAla][B5(3)]NT[Aib]AFN[PyrS2″][3Thi][Bta]Q-NH2 (staple 1-4, 4-11) [I-2338] | > 20 µM | 
Ac-[αAllylPro]D[tBuAla][B5(3)][Asp(OEt)″]DAAFL[PyrS2″][3Thi][Bta]Q-NH2 (staple 1-4, 4-11) [I-2357] | > 20 µM | 
Ac-[αAllylPro]D[Cha][B5(3)]DDAA[Phe(3-CF3)]S[PyrS2″]F[Bta]Q-NH2 (staple 1-4, 4-11) [I-1125] |  | NanoBRET Abs IC50 [3]: > 20 µM
Ac-[αAllylPro][Asp(OMe)][tBuAla][B5(3)]DDAAFL[PyrS2″][3Thi][Bta]Q-NH2 (staple 1-4, 4-11) [I-2359] | > 20 µM | 
Ac-[αAllylPro]N[Cha][B5(3)]D[TfeGA][Lys(iPr)]AFL[PyrS2″]F[Bta]Q-NH2 (staple 1-4, 4-11) [I-2341] | > 20 µM | 
